Assay results as given in paper PMC9952701.

Molecular target: insulin-like growth factor receptor type 1 (IGF1R) (mouse (endogenous in HEI-OC1)) (UniProt Q60751)
UniProt Q60751, sequence (Q60751 31-1373): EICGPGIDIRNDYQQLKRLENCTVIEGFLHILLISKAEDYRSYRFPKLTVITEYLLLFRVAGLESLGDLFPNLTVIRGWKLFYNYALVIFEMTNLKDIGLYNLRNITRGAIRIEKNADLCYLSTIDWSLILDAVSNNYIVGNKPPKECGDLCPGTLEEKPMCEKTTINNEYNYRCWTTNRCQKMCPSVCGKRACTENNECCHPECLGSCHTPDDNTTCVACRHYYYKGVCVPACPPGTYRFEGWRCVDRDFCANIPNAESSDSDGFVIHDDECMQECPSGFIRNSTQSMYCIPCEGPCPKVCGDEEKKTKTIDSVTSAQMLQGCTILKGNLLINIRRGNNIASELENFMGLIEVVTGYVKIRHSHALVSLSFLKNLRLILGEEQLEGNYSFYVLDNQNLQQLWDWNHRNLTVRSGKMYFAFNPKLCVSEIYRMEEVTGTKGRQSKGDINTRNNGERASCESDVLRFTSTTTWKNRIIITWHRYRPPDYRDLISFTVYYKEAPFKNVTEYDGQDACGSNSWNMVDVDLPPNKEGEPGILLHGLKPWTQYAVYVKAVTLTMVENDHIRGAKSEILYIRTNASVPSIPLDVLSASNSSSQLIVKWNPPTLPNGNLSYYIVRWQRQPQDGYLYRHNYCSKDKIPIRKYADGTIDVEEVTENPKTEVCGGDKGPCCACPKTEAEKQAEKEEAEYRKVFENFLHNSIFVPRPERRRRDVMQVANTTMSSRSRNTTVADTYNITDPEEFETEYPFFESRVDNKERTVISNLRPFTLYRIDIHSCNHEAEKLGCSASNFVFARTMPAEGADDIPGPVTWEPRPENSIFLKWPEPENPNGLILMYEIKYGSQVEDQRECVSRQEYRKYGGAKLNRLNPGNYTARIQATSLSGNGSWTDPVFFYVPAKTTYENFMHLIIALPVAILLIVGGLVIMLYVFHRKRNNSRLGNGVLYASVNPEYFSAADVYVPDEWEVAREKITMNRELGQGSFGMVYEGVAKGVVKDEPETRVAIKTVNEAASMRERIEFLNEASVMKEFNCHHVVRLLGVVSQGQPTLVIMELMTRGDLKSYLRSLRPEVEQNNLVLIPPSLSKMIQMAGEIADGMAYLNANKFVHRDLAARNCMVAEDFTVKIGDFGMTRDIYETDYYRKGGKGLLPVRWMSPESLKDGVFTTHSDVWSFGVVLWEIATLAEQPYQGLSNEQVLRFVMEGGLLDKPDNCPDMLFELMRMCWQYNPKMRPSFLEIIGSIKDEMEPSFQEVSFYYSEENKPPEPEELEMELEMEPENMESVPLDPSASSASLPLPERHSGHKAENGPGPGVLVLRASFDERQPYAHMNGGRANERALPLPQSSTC

p-IGF1Rβ (Tyr1135) level by Western blot in HEI-OC1 progenitor cells treated with IGF-1 (10 nM), sustained for 30 min, versus untreated control: 11 fold | p-IGF1Rβ (Tyr1135) level by Western blot in differentiated HEI-OC1 cells treated with IGF-1 (10 nM) for 5 min, versus untreated control: 3.5 fold
Substance: human recombinant IGF-1 (insulin-like growth factor 1) (from UniProt P05019 49-118) (ligand)
